US20250215499A1 (CHINESE UNIVERSITY OF HONG KONG, published 2025)

Assays:
SQSTM1/p62 = SQSTM1/p62 (UniProt Q13501 2-440, limits assumed); assay: co-immunoprecipitation
BECN1 = target: T1, BECN1 (UniProt Q14457 1-450, limits assumed); assay: co-immunoprecipitation
T1 construct: The ubiquitination co-IPs used endogenous protein from T-REx-293 and KYSE150 cells; also called Beclin 1; Beclin 1/BECN1
T1 sequence (Q14457 whole entry): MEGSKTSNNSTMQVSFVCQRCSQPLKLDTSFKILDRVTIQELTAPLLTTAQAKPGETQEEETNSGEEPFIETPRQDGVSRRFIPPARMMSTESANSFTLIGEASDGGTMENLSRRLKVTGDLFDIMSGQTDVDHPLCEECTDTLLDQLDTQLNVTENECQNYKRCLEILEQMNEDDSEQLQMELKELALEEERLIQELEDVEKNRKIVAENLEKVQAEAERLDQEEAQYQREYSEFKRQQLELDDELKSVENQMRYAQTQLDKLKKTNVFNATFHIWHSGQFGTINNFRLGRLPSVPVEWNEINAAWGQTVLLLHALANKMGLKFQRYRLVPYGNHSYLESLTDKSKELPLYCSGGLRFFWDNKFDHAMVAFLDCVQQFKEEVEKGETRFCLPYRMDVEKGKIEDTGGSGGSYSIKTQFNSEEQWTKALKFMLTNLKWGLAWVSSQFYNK

- binding result (SQSTM1/p62): no binding
- binding result (BECN1): no binding
B1: SP0495 (small protein of KIAA0495), encoded by KIAA0495-ORF2 (other)
chain: MCLLSSSAASDLAATSLTAHPCHPPLPRQPQPQLILSGSPSIGTVPPPAVGHTSLLPVNPPAISTTTSDLSAREDATPSASTGHLSVFPAFQVKIPAVPSEQTSQSFSEASHRVLPGGGPRCSRDFGAGVAGHLGLGIFGVGFGSPALLQSVVDENSCCLLYVVEDQLCDVEQAFRAEHLGQHQSGSGTGCRHCPQRPAAL
notes: The 1-18 transmembrane/signal peptide domain is only a bioinformatic prediction and was not removed; also called KIAA0495-ORF2/SP0495; KIAA0495-ORF2 protein
